Experimental data published in patent US20260365709 (published 2026).
Where two headings read alike, the source gives them in different places.

T1: hIL10RaFc (R&D 9044-RI) (human, UniProt Q13651)
T1 chain: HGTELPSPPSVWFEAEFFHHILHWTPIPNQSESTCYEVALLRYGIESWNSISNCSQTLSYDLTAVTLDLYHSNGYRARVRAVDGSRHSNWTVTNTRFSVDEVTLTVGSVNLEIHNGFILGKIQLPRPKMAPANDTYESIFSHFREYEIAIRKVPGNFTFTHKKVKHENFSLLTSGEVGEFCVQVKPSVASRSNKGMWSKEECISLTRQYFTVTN

T2: mIL10RaFc (Sino 51298-M02H) (mouse, UniProt Q61727)
T2 chain: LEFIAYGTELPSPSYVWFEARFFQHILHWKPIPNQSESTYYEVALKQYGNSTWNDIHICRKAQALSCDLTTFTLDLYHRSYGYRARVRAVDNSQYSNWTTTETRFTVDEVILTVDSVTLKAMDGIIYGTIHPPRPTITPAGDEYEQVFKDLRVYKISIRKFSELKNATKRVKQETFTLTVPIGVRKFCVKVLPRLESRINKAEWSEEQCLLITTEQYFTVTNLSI


How the values were obtained:
Test in all cases: SPR
[1] = biological target: T1, hIL10RaFc (R&D 9044-RI)
[2] = biological target: T2, mIL10RaFc (Sino 51298-M02H)
[3] = biological target: T2, mIL10RaFc (Sino 51298-M02H)

Binder	Kd [2]	further results
h_DR1060_AA (hIL10 WT inverted monomer) (designed binder) KSKAVEQVKNAFNKLQEKGIYKAMSEFDIFINYIEAYMTMKIRNSPGQGTQSENSCTHFPGNLPNMLRDLRDAFSRVKTFFQMKDQLDNLLLKESLLEDFKGYLGCQALSEMIQFYLEEVMPQAENQDPDIKAHVNSLGENLKTLRLRLRRCHRFLPCENGGSHHHHHHHH	–	Kd [1]: 0.38 nM
DR2806 (designed binder) GKSKAVEQVKSIFNKLQDQGVYKAMNEFDIFINAIEAYMMIKMKSSREDNNCTHFNVGLSHMLLELRTAFSQVKTFFQTKDQLDNILLTDSLMQDFKGYLGCQALSEMIQFYLVEVLPQAEKHGPEIKEHLNSLGEILKTLRMRLRRCHRFLPCEN	2.7 nM	–
DR2805 (designed binder) GKSKAVEQVKSIFNKLQDQGVYKAMNEFDIVINAIEAYMMIKMKSSREDNNCTHAPVMFSHMLLELRTAFSQVKTFFQTKDQLDNILLTDSLMQDFKGYLGCQALSEMIQFYLVEVLPQAEKHGPEIKEHLNSLGEILKTLRMRLRRCHRFLPCEN	30.9 nM	–
DR2804 (designed binder) GKSKAVEQVKSIFNKLQDQGVYKAMNEFDIFINAIEAYMMIKMKSSREDNNCTHAPVGMSHMLLELRTAFSQVKTFFQTKDQLDNILLTDSLMQDFKGYLGCQALSEMIQFYLVEVLPQAEKHGPEIKEHLISLGEILKTLRMRLRRCHRFLPCEN	1.59 nM	–
DR2809 (designed binder) GKSKAVEQVKSIFNKLQDQGVYKAMNEFDIFINAIEAYMMIKMKSSREDNNCTHAPVGQSHMLLELRTAFSQVKTFFQTKDQLDNILLTDSLMQDFKGYLGCQALSEMIQFYLVEVLPQAEKHGPEIKEHLNSLGEKLKTLRMRLRRCHRFLPCEN	17.3 nM	–
DR2813 (designed binder) GKSKAVEQVKSDFNKLQDQGVYKAMNEFDIFINAIEAYMMIKMKSSREDNNCTHFWVAMSHMLLELRTAASQVKTFFQTKDQLDNILLTDSLMQDFKGYLGCQALSEMIQFYLVEVLPQAEKHGPEIKEHLISLGEILKTLRMRLRRCHRFLPCEN	39.9 nM	–
DR2803 (designed binder) GKSKAVEQVKSIFNKLQDQGVYKAMNEFDIFINAIEAYMMIKMKSSREDNNCTHAPVAFWHMLLELRTAFSQVKTFFQTKDQLDNILLTDSLMQDFKGYLGCQALSEMIQFYLVEVLPQAEKHGPEIKEHLNSLGEILKTLRMRLRRCHRFLPCEN	1.7 nM	–
DR2815 (designed binder) GKSKAVEQVKSDFNKLQDQGVYKAMNEFDIFINAIEAYMMIKMKSSREDNNCTHFNVVMSHMLLELRTAFSQVKTFFQTKDQLDNILLTDSLMQDFKGYLGCQALSEMIQFYLVEVLPQAEKHGPEIKEHLNSLGEKLKTLRMRLRRCHRFLPCEN	1 nM	–
DR2816 (designed binder) GKSKAVEQVKSDFNKLQDQGVYKAMNEFDIFINAIEAYMMIKMKSSREDNNCTHAPVGQSHMLLELRTAFSQVKTFFQTKDQLDNILLTDSLMQDFKGYLGCQALSEMIQFYLVEVLPQAEKHGPEIKEHLNSLGEILKTLRMRLRRCHRFLPCEN	1.61 nM	–
hIL10 WT (protein, wild-type human IL10, homodimer; exact construct/tag not stated) SPGQGTQSENSCTHFPGNLPNMLRDLRDAFSRVKTFFQMKDQLDNLLLKESLLEDFKGYLGCQALSEMIQFYLEEVMPQAENQDPDIKAHVNSLGENLKTLRLRLRRCHRFLPCENKSKAVEQVKNAFNKLQEKGIYKAMSEFDIFINYIEAYMTMKIRN	–	Kd [1]: 0.06 nM
DR2820 (designed binder) GKCKAVEQVKSDFNKLQDQGVYKAMNEFDIFINAIEAYMMIKMKSQYSREDNNCTHFPVGQSHMLLELRTAFSQVKTFFQTKDQLDNILLTDSLMQCFKGYLGCQALSEMIQFYLVEVMPQAEKHGPEIKEHLNSLGEKLKTLRMRLRRCHRFLPCEN	3.37 nM	–
DR2821 (designed binder) GKSKACEQVKSDFNKLQDQGVYKAMNEFDIFINAIEAYMMIKMKSQYSREDNNCTHFPVGQSHMLLELRTAFSQVKTFFQTKDQLDNILLTDSLMQDFKGYLGCQALSCMIQFYLVEVMPQAEKHGPEIKEHLNSLGEKLKTLRMRLRRCHRFLPCEN	4.49 nM	–
mIL10 WT (protein, wild-type mouse IL10, homodimer; exact construct/tag not stated) SRGQYSREDNNCTHFPVGQSHMLLELRTAFSQVKTFFQTKDQLDNILLTDSLMQDFKGYLGCQALSEMIQFYLVEVMPQAEKHGPEIKEHLNSLGEKLKTLRMRLRRCHRFLPCENKSKAVEQVKSDFNKLQDQGVYKAMNEFDIFINCIEAYMMIKMKS	–	Kd [3]: 0.81 nM

Further lines, with some results ahead:

Kd [2]	Binder	further results
144 nM	DR2807 (designed binder) GKSKAVEQVKSIFNKLQDQGVYKAMNEFDIFINAIEAYMMIKMKSSREDNNCTHFPVGQSHMLLELRTAFSQVKTFFQTKDQLDNILLTDSLMQDFKGYLGCQALSEMIQFYLVEVMPQAEKHGPEIKEHLNSLGEKLKTLRMRLRRCHRFLPCEN	–
2.29 nM	DR2802 (designed binder) GKSKAVEQVKSIFNKLQDQGVYKAMNEFDIFINAIEAYMMIKMKSSREDNNCTHFMVAMSHMLLELRTAFSQVKTFFQTKDQLDNILLTDSLMQDFKGYLGCQALSEMIQFYLVEVLPQAEKHGPEIKEHLNSLGEKLKTLRMRLRRCHRFLPCEN	–
1.35 nM	DR2808 (designed binder) GKSKAVEQVKSIFNKLQDQGVYKAMNEFDIFINAIEAYMMIKMKSSREDNNCTHAPVGQSHMLLELRTAFSQVKTFFQTKDQLDNILLTDSLMQDFKGYLGCQALSEMIQFYLVEVLPQAEKHGPEIKEHLNSLGEILKTLRMRLRRCHRFLPCEN	–
5.2 nM	DR2823 (designed binder) GKSKAVEQVKSDFNKLQDQGVYKAMNEFDIFINAIEAYMMIKMKSSREDNNCTHFPVGQSHMLLELRTAFSQVKTFFQTKDQLDNILLTDSLMQDFKGYLGCQALSEMIQFYLVEVMPQAEKHGPEIKEHLNSLGEKLKTLRMRLRRCHRFLPCEN	–
1.65 nM	DR2817 (designed binder) GKSKAVEQVKSDFNKLQDQGVYKAMNEFDIFINAIEAYMMIKMKSSREDNNCTHAPVGQSHMLLELRTAFSQVKTFFQTKDQLDNILLTDSLMQDFKGYLGCQALSEMIQFYLVEVLPQAEKHGPEIKEHLNSLGEKLKTLRMRLRRCHRFLPCEN	–
5.27 nM	WC161_AA (mIL10 WT inverted monomer) (designed binder) NKSKAVEQVKSDFNKLQDQGVYKAMNEFDIFINAIEAYMMIKMKSSRGQYSREDNNCTHFPVGQSHMLLELRTAFSQVKTFFQTKDQLDNILLTDSLMQDFKGYLGCQALSEMIQFYLVEVMPQAEKHGPEIKEHLNSLGEKLKTLRMRLRRCHRFLPCENGGSHHHHHHHH	Kd [3]: 6.54 nM
6.42 nM	DR2822 (designed binder) GKSKAVEQVKSDFNKLQDQGVYKAMNEFDIFINAIEAYMMIKMKSREDNNCTHFPVGQSHMLLELRTAFSQVKTFFQTKDQLDNILLTDSLMQDFKGYLGCQALSEMIQFYLVEVMPQAEKHGPEIKEHLNSLGEKLKTLRMRLRRCHRFLPCEN	–
2.71 nM	DR2819 (designed binder) GKSKCVEQVKSDFNKLQDQGVYKAMNEFDIFINAIEAYMMIKMKSQYSREDNNCTHFPVGQSHMLLELRTAFSQVKTFFQTKDQLDNILLTDSLMQCFKGYLGCQALSEMIQFYLVEVMPQAEKHGPEIKEHLNSLGEKLKTLRMRLRRCHRFLPCEN	–
2.34 nM	DR2818 (designed binder) GKSKCVEQVKSDFNKLQDQGVYKAMNEFDIFINAIEAYMMIKMKSQYSREDNNCTHFPVGQSHMLLELRTAFSQVKTFFQTKDQLDNILLTDSCMQDFKGYLGCQALSEMIQFYLVEVMPQAEKHGPEIKEHLNSLGEKLKTLRMRLRRCHRFLPCEN	–
